From article PMC5399792

Tests used:
[1] = molecular target: T1, influenza B polymerase (PA-PB1-PB2 heterotrimer, FluB) (Influenza B virus, UniProt Q5V8Z9;Q5V8Y6;Q5V8X3 1-726;1-752;1-770); experiment: X-ray crystallography (3.8 A); conditions: protein: recombinant, copies: 1;1;1
[2] = molecular target: T1, influenza B polymerase (PA-PB1-PB2 …); experiment: fluorescence anisotropy; 1:1 stoichiometry; conditions: protein: recombinant, copies: 1;1;1
[3] = molecular target: T1, influenza B polymerase (PA-PB1-PB2 …); experiment: FRET / fluorescence titration; conditions: protein: recombinant; copies: 1;1;1; label: 3'-FAM-Ex-5 on v5'; 5'-Cy3 on v3' (implied by FRET)
[4] = label: FAM-Ex-5, 5' hook hairpin on polymerase

Binder: AAUCUAUAAUAGC (ssRNA, 5'-m7Gppp cap) [capped 13-mer primer]
- binding result ([1]; single strand): binds

Binder: UACCCUCUUGUUACUACU (ssRNA) [c3' 1-18]
- Kd ([2]; label: FAM-Ex-5, single strand): < 10 nM

B1: v5' 1-10 + v3' 1-18 (mixed)
RNA 1: AGUAGUAACA
RNA 2: UAUACCUCUGCUUCUGCU
- binding result [3]: binds

Binder: AGUAGUAACA (ssRNA) [v5' 1-10]
- Kd ([2]; label: 3'-FAM-Ex-5, 5' hook hairpin on polymerase): < 10 nM

Binder: AGUAGUAACAAGAGGGUA (ssRNA) [v5' 1-18]
- Kd [2, 4]: < 10 nM

Binder: AGCAGAAGCAGAGGUAUA (ssRNA) [c5' 1-18]
- Kd [2, 4]: < 10 nM

Binder: UAUACCUCUGCUUCUGCU (ssRNA) [v3' 1-18]
- Kd ([2]; label: 5'-FAM-Ex-5, single strand): < 10 nM

B2: vRNA promoter v5' 1-14 + v3' 1-18 (crystal) (structured_RNA)
RNA 1: AGUAGUAACAAGAG
RNA 2: UAUACCUCUGCUUCUGCU
modifications: 5'-monophosphate on v5'
- binding result [1]: binds
